{"source": "patent US6284456", "about": "“Transcriptional coactivator that interacts with Tat protein and regulates its binding to TAR RNA, methods for modulating Tat transactivation, and uses therefor” (The Salk Institute for Biological Studies, dated 2001)", "target": "cyclin T1 (native 87 kDa protein of HeLa nuclear extract) (human)", "sequence (chain, as listed by the source limits assumed)": "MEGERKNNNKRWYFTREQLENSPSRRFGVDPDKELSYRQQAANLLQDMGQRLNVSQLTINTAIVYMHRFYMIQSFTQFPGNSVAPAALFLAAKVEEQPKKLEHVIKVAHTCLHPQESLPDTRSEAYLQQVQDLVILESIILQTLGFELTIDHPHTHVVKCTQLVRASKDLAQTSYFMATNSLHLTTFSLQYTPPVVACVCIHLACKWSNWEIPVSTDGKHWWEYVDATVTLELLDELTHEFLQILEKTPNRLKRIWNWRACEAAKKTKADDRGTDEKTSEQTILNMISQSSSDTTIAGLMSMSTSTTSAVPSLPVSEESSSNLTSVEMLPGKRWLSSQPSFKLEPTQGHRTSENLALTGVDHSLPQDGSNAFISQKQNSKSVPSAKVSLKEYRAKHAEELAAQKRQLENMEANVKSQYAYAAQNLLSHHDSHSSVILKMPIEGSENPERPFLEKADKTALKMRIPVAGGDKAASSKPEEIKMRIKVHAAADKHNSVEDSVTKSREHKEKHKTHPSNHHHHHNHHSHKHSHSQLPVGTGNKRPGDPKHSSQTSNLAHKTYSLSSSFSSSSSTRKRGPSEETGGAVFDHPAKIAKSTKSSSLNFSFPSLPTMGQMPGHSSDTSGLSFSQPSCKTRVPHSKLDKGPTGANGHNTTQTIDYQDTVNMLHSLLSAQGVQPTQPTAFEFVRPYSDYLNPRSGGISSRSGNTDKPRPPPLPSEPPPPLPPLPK", "test": "GST-Tat bead pull-down from HeLa nuclear extract, SDS-PAGE, silver stain"}
{"binder": "MEPVDPRLEPWKHPGSQPKTACTNCYCKKCCFHCQVCFITAALGISYG (other)", "note": "[GST-Tat-1 K41A (aa 1-48)]", "values": [{"measurement": "binding result", "result": "no binding"}]}
